Experimental data published in paper PMC2188260.
Like-named read-outs stand apart in the source and are kept apart here.

What was measured:
Assay in all cases: co-IP
[1] = biological target: human plasma gelsolin (human) (UniProt P06396)
[2] = biological target: gelsolin of rabbit lung macrophages (rabbit (endogenous in lung macrophages))
[3] = biological target: gelsolin of rabbit lung macrophages (rabbit (endogenous in lung macrophages)); remark: listed apart in the source
[4] = biological target: gelsolin of rabbit lung macrophages (rabbit (endogenous in lung macrophages)); remark: listed apart in the source

Sequence of human plasma gelsolin (human) (P06396 28-782): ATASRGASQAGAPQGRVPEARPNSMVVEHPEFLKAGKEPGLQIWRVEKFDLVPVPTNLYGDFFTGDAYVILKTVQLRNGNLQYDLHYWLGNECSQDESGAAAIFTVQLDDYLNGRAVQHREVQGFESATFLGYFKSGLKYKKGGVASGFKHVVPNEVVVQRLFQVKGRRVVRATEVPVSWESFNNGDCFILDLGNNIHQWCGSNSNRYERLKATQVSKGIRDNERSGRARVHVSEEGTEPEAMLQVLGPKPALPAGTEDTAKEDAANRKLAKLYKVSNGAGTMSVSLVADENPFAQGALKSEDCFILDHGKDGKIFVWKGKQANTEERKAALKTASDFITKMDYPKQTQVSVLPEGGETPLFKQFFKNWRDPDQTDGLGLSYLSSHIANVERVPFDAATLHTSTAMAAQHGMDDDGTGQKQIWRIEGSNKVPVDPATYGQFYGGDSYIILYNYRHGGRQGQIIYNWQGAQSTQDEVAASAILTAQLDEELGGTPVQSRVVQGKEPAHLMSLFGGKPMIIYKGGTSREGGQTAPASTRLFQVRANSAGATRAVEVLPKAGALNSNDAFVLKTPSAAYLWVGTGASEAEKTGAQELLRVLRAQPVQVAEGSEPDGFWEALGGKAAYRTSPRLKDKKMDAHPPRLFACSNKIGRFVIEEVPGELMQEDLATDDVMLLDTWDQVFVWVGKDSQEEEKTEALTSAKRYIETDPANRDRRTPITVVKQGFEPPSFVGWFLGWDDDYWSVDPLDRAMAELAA

Work on “rabbit skeletal muscle actin (from UniProt P68135 1-377) (natural protein)” yielded a stoichiometry N (actin per gelsolin) [1] of 1.
Substance “actin of rabbit lung macrophages (from UniProt P29751 1-375) (natural protein)” has a molar ratio of actin to gelsolin on the beads (actin per gelsolin) [2] of 4, a molar ratio of actin to gelsolin on the beads (actin per gelsolin) [3] of 1 and a percent of gelsolin complexed with actin [3] of 100%. For the same substance, the molar ratio of actin to gelsolin on the beads (actin per gelsolin) [4] was 0.5, the percent of gelsolin complexed with actin [4] was 50% and the percent of gelsolin in the EGTA-resistant complex (cells in suspension, 0 min) [4] was 20%. The percent of gelsolin in the EGTA-resistant complex (cells in suspension, 30 min) [4] was 90%, the percent of total gelsolin complexed to actin (1 uM ionomycin, 30 s) [4] was 80% and the percent of total gelsolin complexed to actin (before ionomycin) [4] was 50%. It also gave a percentage of gelsolin in an EGTA-resistant complex (DMSO, experiment 1) [4] of 32%, a percentage of gelsolin in an EGTA-resistant complex (DMSO, experiment 2) [4] of 34% and a percentage of gelsolin in an EGTA-resistant complex (DMSO, experiment 3) [4] of 51%. The percentage of gelsolin in an EGTA-resistant complex (DMSO, experiment 4) [4] was 35%, the percentage of gelsolin in an EGTA-resistant complex (DMSO, mean value) [4] was 38% and the percentage of gelsolin in an EGTA-resistant complex (FMLP, experiment 1) [4] was 23%. For the same substance, the percentage of gelsolin in an EGTA-resistant complex (FMLP, experiment 2) [4] was 24%, the percentage of gelsolin in an EGTA-resistant complex (FMLP, experiment 3) [4] was 25% and the percentage of gelsolin in an EGTA-resistant complex (FMLP, experiment 4) [4] was 26%. The percentage of gelsolin in an EGTA-resistant complex (FMLP, mean value) [4] was 25%, the percentage of gelsolin in an EGTA-resistant complex (no addition, experiment 1) [4] was 43% and the percentage of gelsolin in an EGTA-resistant complex (no addition, experiment 2) [4] was 40%. It also gave a percentage of gelsolin in an EGTA-resistant complex (no addition, experiment 3) [4] of 51%, a percentage of gelsolin in an EGTA-resistant complex (no addition, experiment 4) [4] of 47% and a percentage of gelsolin in an EGTA-resistant complex (no addition, mean value) [4] of 45%.
